The experiment has as its target T1, ubiquitin (human, UniProt P0CG48 1-76).
T1 construct: ubiquitin, human; the cut product (one ubiquitin unit) of the polyubiquitin precursor; Construct was a gift (Dr. Julie Forman-Kay); also called human ubiquitin
In words: ITC; ubiquitin (5 mM) in the syringe, Tom1 VHS (50 uM) in the sample cell; 25 °C; 20 mM HEPES (pH 7.4), 150 mM KCl; one-site binding model; nonreducing conditions. Conditions: both partners purified. In general terms: Isothermal titration calorimetry measures the heat released or taken up as one component is titrated into another.

B1: Tom1 VHS domain (domain or fragment, human, UniProt O60784 20-152, looked up)
chain: ATDGSLQSEDWALNMEICDIINETEEGPKDALRAVKKRIVGNKNFHEVMLALTVLETCVKNCGHRFHVLVASQDFVESVLVRTILPKNNPPTIVHDKVLNLIQSWADAFRSSPDLTGVVTIYEDLRRKGLEFP
notes: Tom1 (target of Myb1), human, N-terminal VHS domain; measured average mass 15,708.01 Da, predicted 15.7 kDa; also called VHS domain of Tom1; target of Myb1 VHS domain; source: E. coli (Rosetta), GST fusion purified on glutathione beads, cleaved with thrombin, size-exclusion chromatography
As to B1, the Kd (in general, a measure of binding affinity in units of concentration) was determined as 695 µM.

Values taken from PMC6659632, “Preferential phosphatidylinositol 5-phosphate binding contributes to a destabilization of the VHS domain structure of Tom1” (Scientific Reports, 2019).
